Measured values from PMC5943153 (Molecular microbiology, 2018).

T1: HP0221-T25 (NifU) (Helicobacter pylori strain 26695, UniProt O25009 2-326)
T1 sequence (looked up): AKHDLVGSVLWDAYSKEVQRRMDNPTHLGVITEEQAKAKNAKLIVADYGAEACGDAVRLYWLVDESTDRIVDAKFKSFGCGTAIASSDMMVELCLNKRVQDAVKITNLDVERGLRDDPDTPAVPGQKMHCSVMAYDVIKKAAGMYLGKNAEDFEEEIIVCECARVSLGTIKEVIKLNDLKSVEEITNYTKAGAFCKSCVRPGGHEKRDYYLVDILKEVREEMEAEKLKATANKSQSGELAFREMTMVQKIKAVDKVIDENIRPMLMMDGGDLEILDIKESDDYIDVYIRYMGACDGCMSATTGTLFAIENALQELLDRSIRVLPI

T2: T25-HP1492 (Nfu) (Helicobacter pylori strain 26695, UniProt O26025 2-89)
T2 sequence (looked up): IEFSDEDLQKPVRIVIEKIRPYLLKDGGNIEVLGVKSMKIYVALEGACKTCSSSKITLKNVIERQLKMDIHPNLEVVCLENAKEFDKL

T3: T25-HP0221 (NifU) (Helicobacter pylori strain 26695, UniProt O25009 2-326)
T3 sequence (looked up): T1 sequence (looked up)

B1: T18-HP0625 (natural protein, Helicobacter pylori strain 26695, UniProt O25342 2-359, looked up)
chain: LENRVKTKQIFIGGVAIGGDAPISTQSMTFSKTADIESTKNQIDRLKLAGADLVRVAVSNEKDALALKELKKVSPLPLIADIHFHYKFALIAAQSVDAIRINPGNIGSKEKIKAVVDACKEKNIPIRIGVNAGSLEKQFDQKYGPTPKGMVESALYNAKLLEDLDFTNFKISLKASDVIRTIEAYRMLRPLVIYPFHLGVTEAGNLFSSSIKSAMALGGLLMEGIGDTMRVSITGELENEIKVARAILRHSGRLKEGINWISCPTCGRIEANLVDMAIKVEKRLSHIKTPLDISVMGCVVNALGEAKHADMAIAFGNRSGLIIKEGKVIHKLAEKDLFETFVIEVENLAKEREKSLKD
B2: T18-HP0631 (natural protein, Helicobacter pylori strain 26695, UniProt O25348 2-384, looked up)
chain: FYDEKKTYQKIEERLDIVRSFNAHNEHKNLQDEFKGAGISRRDLLKWAGMMSTALALPASFAPLTLKAVEVANRLPVIWLHMAECTGCSESLLRSADPTIDSIIFDYINLEYHETIMVASGFQAEKSLHDAIEKHKNNYILMVEGGIPQGTEYFLTQGPNAETGAEECRKAAQYAAAIFAIGTCSSFGGVQAAYPNPSNAQPLHKIIDKPVINVPGCPPSEKNIVGNVLYYLMFGALPKLDAYNRPSWAYGNRIHDLCERRGHFDAGEFVEHFGDENAKRGFCLYKMGCKGPYTFNNCSKLRFNSHTSWPIGAGHGCIGCSEPNFWDTMSPFEEPLANRSIKTAFDGLGADKVADKVGTTLLSATAIGIVAHALLSKAIKNKE
B3: T18-HP0654 (natural protein, Helicobacter pylori strain 26695, UniProt O25368 2-360, looked up)
chain: DFLEKVLDNQVTESKELVRLYDYDLYTLGEVADRMRQNMHQKIVYFNVNRHLNPSNICADACKFCAFSAHRKNPNPYEMSLEEILEKVKNSYNKGIKEVHIVSAHNPNYSYEWYLKVFETIKQEMPNLHLKAMTAAEVHFLSVKFNKPFELVLEDMLKAGVDSMPGGGAEIFDEEIRRKICNGKVGSSRWLEIHAYWHKLGKMSNATMLFGHIENKIHRIDHMLRIKKIQSPKNQVENKEGGFNAFIPLLYQKENNYLNVEKSPSAIEILKTIAISRILLNNIPHIKAYWATLGLNLALVAQEFGANDLDGTIEIESIQSAAGAKSRHGLEKEDLIFKIKDAGFVAVERDSLYNFIQKF
B4: T18-HP0656 (natural protein, Helicobacter pylori strain 26695, UniProt O25370 2-383, looked up)
chain: ARNVKGYASTLTWTITRNTLNFLWEQGFKMRINREEILDLMKNAPLKELGQRALRVKQRLHPENLTTFIVDRNINYTNICFVDCKFCAFKRTLKEKDAYVLSYEEIDQKIEELLAIGGTQILFQGGVHPQLKIDYYENLVSHIAQKFPTITIHGFSAVEIDYISKISKLSLKEVLERLKNAGLSSIPGAGAEVLSDRVRDVIAPKKLSSDRWIEVHRMAHLCGIKSTATMMFGSVDNEEDVVEHLQRVRDLQDETGGFRAFILWSFQPNNTPLKEEIPSIKKASSNRYLRYLACSRIFLDNIQNIQSSWVTQGSMIGQLALLFGANDLGSVMMEENVVKAAGTSFCMNEAGMIELIEDIGSVAAKRNTAYEILKRYPAKAKV
B5: T18-HP0665 (natural protein, Helicobacter pylori strain 26695, UniProt O25376 2-457, looked up)
chain: QTIDFEKFSQYSKPGPRYTSYPTAVEFNENFNEESLKTAFFNHDNLKNPMPLSLYTHLPFCRSACYFCACSVIYTSLEEKKIRYISYLKKELALLKNAMDTNREVAQFHYGGGTPTFFSPIQLDEITQSIQEVFPNFSKDIEMSCEIDPRHFTKEHMQTLFDRGFNRLSFGVQDFDFEVQKAIHRIQPFEMVQESVKLARDYGIKSINFDLIYGLPNQTKEGFLKTLEWVLKLDPDRLAVFNYAHVPWVKKTMRKIDETLLPSLRDKLEILESLISFLEKANYQMIGMDHFAKSDNELYLALQKAELRRNFQGYTTKKFTQTIGIGVTSIGEGGDYYTQNYKDLHHYEKALDLGHLPVERGVALSQEDVLRKEVIMQMMSNLKLDYSKIEEKFSVDFKAHFKKELEKLKPYEEAGLLSFNSKGFEMTKTGGMLVRNMAMEFDAYLRGGEKHFSKTL
B6: T18-HP0117 (natural protein, Helicobacter pylori strain 26695, UniProt P56080 2-308, looked up)
chain: AKENPPIVFGPVLSRRFGKSLGVDLSPSKKQCNYNCIYCELGKAKPIERMEEVIKVETLINAIQNALNNLTTPIDVLTITANGEPTLYPHLLELIQSIKPFLKGVKTLILSNGSLFYEPKVQQALKEFDIVKFSLDAIDLKAFERVDKPYSKDINKILEGILRFSQIYQGQLVAEVLLIKGVNDSANNLKLIAAFLKQINIARVDLSTIDRPSSFKAPKLSEDELLKCSLFFEGLCVSLPKRSITQAKKLISCGIDELLALISRRPLSAEEAPLILDSNAFKHLETLLNHKQITIKKVGSLEFYCAF
B7: T18-HP0285 (natural protein, Helicobacter pylori strain 26695, UniProt P56130 2-418, looked up)
chain: KKVYFKTFGCRTNLFDTQVMSENLKDFSTTLEEQEADIIIINSCTVTNGADSAVRSYAKKMARLDKEVLFTGCGVKTQGKELFEKGFLKGVFGHDNKEKINALLQEKKRFFIDDNLENKHLDTTMVSEFVGKTRAFIKIQEGCDFDCNYCIIPSVRGRARSFEERKILEQVGLLCSKGVQEVVLTGTNVGSYGKDRGSNIARLIKKLSQIAGLKRIRIGSLEPNQINDEFLELLEEDFLEKHLHIALQHSHDLMLERMNRRNRTKSDRELLETIASKNFAIGTDFIVGHPGESGSVFEKAFKNLESLPLTHIHPFIYSKRKDTPSSLMTDSVSLEDSKKRLNAIKDLIFHKNKAFRQLQLKLNTPLKALVEVQKDGEFKALDQFFNPIKIKSDKPLRASFLEIKEYEIKERENHAVF
B8: T18-HP0779 (natural protein, Helicobacter pylori strain 26695, UniProt P56418 2-852, looked up)
chain: KDFLEDYKKSVSERGSEGIPPLPLNAKQVQAVVEILTKDPTNAAFAKELLIHRVSPGVDEGAKVKAEFLAKLSQKKLECVHISALEATTLLGTMLGGYNVEPLIMGLESQDKNIAKESAKALKTTLLVYGSFDKIAAMSKTNALAKEVLESWANAEWFLNKEPLNECIEACVFKIDGETNTDDLSPASDAFTRSDIPLHAKAMLKNRIENYEQRIKAIKTKGVPVAYVGDVVGTGSSRKSATNSIMWHFGKDIPFVPNKRSGGIVIGGVIAPIFFATCEDSGALPIVADVKDLKEGDLIKIYPYKGEITLNDKVVSTFKLEPETLLDEVRASGRIPLIIGRGLTNKARKFLGLGESEAFKKPSAPKSDAKGYTLAQKIVGHACGVKGILPGTYCEPKVTTVGSQDTTGAMTRDEVKELASLKFDAPFVLQSFCHTAAYPKPSDVSLHATLPGFITQRGGVALHPGDGVIHTWLNRMGLPDTLGTGGDSHTRFPLGISFPAGSGLVAFAAVTGTMPLNMPESVLVRFKGEMNPGITLRDLVNAIPYYAIKKGLLTVEKKGKINVFNGRILEIEGLPDIKMEQAFELSDASAERSAAACVVRLNKEPMIEYLKSNIKLIDEMIASGYEDKETLKKRRDAMQAWVDNPVLLEPDSNAQYAAVIEIDVAEITEPILACPNDPDDVATLSEVLADTTGKRPHAIDEVFIGSCMTNIGHFRAFGEIVKNAPPSQARLWVVPPSKMDEQELINEGYYAIFGAAGARTEVPGCSLCMGNQARVRDNAVVFSTSTRNFDNRMGRGAKVYLGSAELGAACALLGRIPTKEEYMNLVSEKLESQKDKIYRYMNFNLMENFRL
B9: T18-HP1222 (natural protein, Helicobacter pylori strain 26695, UniProt O25820 2-948, looked up)
chain: RVEENYHAFFTEASGFLNERIFKDYLRRLAYGIDASCYRYIPKIVAWVKNEEEVQKLCVLAKKHGVSLTFRAAGSSLSGQAICDGVLVMVTHFFKDAQILDNAQSIQLSCGVIGSNANALLKPYHKKIGPDPSTINTAMIGGIVANNASGMCCGVEQNSYKTLKSLRVILADGTLLDTANQESVESFKNAHKDLIEGVLNLRKEILEDKELHALIKKKYEIKNTTGYSLNALIDFEDPIEIISHLFIGSEGTLGFISSVELECVKDYAYKTCALLFYENLERCAKAAQILAALKAKQPEMISSAELMDYACLKSVKGLEGMPSVVLEIKEPNACLLIQSESDDPLILENSMQTILNALSAIPVVLDSQISSDPSIYQSWWKIRKGIFPIAASKRKSQSSVIIEDICFSQEDFVEGAKAIEGLLKKHGFKDNGIIFGHALSGNLHFVVTPILENEAERKAFENLVSEMFLMVSKSSGSIKAEHGTGRMVAPFVEMEWGEKAYKIHKQIKELFDPNGILNPDVIITNDKEIHTKNLKSIYPIEEHLDMCMECGFCERICPSKDLSLTPRQRIVIHREVEHLKERVSHGHHEDQVLLDELLKESEYLAHATCAVCHMCSTLCPLEIDTGKIALNYYQKNPKGEKIASKILNHMQTTTSMARFSLKSARLVQNLIGSHNLVSLTKGIKKFIKPFPKAFYYMPKNNAYPLENKTLKSEEKVIYFSTCINRSFAPSNKMADKRCIQEVFESLCQKAKVSVMYPNGLNALCCGKAFINYTDLTKQNNEKNHAIFLQLSDKGKIPIVLDHSACSTHFFKQMKAYKDLKVYDLSVYIEEVLSPKLKFNPINEDIGLYTMCALKLENKEELLFNLAKKCTLGEIVIHKETGCCGFAGNKGFFTPELNESALNGFQAFYQSYDLKRGFSTSSTCEIGLSEKTRFSWQHIAYLVDACTL

target: T1, HP0221-T25 (NifU); assay: two-hybrid

Row | Binder | growth OD595 in M63-maltose [OD595]
1 | B1 | 0.37
2 | B2 | 0.24
3 | B3 | 0.33
4 | B4 | 0.26
5 | B5 | 0.06

target: T2, T25-HP1492 (Nfu); assay: two-hybrid

Row | Binder | growth OD595 in M63-maltose [OD595]
6 | B6 | 0.09
7 | B7 | 0.21
8 | B8 | 0.17
9 | B9 | 0.06

target: T3, T25-HP0221 (NifU); assay: two-hybrid

Row | Binder | growth OD595 in M63-maltose [OD595]
10 | B1 | 0.11
11 | B2 | 0.08
12 | B3 | 0.09
13 | B4 | 0.13
14 | B5 | 0.07
